Results from article doi:10.1101/2020.06.18.158576 (bioRxiv, 2020).

T1: KaiC (Synechococcus elongatus, UniProt Q79PF4 1-519)
T1 sequence: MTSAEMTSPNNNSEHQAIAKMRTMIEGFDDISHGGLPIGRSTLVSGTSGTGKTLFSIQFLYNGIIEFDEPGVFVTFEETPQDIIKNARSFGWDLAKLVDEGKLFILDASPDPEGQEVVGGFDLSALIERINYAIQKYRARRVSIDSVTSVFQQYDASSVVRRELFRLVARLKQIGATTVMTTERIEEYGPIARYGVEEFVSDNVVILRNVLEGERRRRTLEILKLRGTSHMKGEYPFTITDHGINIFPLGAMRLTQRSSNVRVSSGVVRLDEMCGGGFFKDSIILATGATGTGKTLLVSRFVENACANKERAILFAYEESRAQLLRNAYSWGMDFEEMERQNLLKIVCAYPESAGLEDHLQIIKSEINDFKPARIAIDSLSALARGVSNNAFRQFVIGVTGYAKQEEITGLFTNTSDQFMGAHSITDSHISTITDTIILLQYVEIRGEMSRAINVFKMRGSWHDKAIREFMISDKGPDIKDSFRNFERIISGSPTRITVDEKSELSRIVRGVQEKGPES

T2: SasA (unlabeled) (Synechococcus elongatus, UniProt Q06904 1-387)
T2 sequence: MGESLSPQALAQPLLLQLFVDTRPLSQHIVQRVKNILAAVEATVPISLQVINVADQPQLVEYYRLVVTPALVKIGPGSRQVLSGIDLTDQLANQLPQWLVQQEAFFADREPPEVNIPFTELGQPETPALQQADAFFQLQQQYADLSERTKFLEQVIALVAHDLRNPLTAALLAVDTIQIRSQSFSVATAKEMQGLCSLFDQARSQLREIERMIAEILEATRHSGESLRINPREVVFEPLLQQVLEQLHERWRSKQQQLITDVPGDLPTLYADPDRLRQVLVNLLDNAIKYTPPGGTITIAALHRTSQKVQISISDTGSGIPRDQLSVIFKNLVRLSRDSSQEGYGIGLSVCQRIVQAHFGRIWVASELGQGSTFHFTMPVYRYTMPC


Experiments:
KaiC = target: T1, KaiC; experiment: fluorescence polarisation
SasA (unlabeled) = target: T2, SasA (unlabeled); experiment: fluorescence polarisation

Binder	binding result (KaiC)	binding result (SasA (unlabeled))
KaiA, fluorescently labeled probe (natural protein, fluorescently labeled using sortase-mediated ligation) MLSQIAICIWVESTAILQDCQRALSADRYQLQVCESGEMLLEYAQTHRDQIDCLILVAANPSFRAVVQQLCFEGVVVPAIVVGDRDSEDPDEPAKEQLYHSAELHLGIHQLEQLPYQVDAALAEFLRLAPVETMADHIMLMGANHDPELSSQQRDLAQRLQERLGYLGVYYKRDPDRFLRNLPAYESQKLHQAMQTSYREIVLSYFSPNSNLNQSIDNFVNMAFFADVPVTKVVEIHMELMDEFAKKLRVEGRSEDILLDYRLTLIDVIAHLCEMYRRSIPRET	binds	
SasA, fluorescently labeled probe (enzyme, fluorescently labeled using sortase-mediated ligation) MGESLSPQALAQPLLLQLFVDTRPLSQHIVQRVKNILAAVEATVPISLQVINVADQPQLVEYYRLVVTPALVKIGPGSRQVLSGIDLTDQLANQLPQWLVQQEAFFADREPPEVNIPFTELGQPETPALQQADAFFQLQQQYADLSERTKFLEQVIALVAHDLRNPLTAALLAVDTIQIRSQSFSVATAKEMQGLCSLFDQARSQLREIERMIAEILEATRHSGESLRINPREVVFEPLLQQVLEQLHERWRSKQQQLITDVPGDLPTLYADPDRLRQVLVNLLDNAIKYTPPGGTITIAALHRTSQKVQISISDTGSGIPRDQLSVIFKNLVRLSRDSSQEGYGIGLSVCQRIVQAHFGRIWVASELGQGSTFHFTMPVYRYTMPC	binds	
RpaA R121Q mutant (natural protein) MKPRILVIDDDSAILELVAVNLEMSGYDVRKAEDGIKGQALAVQLVPDLIMLDLMLPRVDGFTVCQRLRRDERTAEIPVLMLTALGQTQDKVEGFNAGADDYLTKPFEVEEMLARVRALLQRTDRIPHAARHSEILSYGPLTLIPERFEAIWFNRTVKLTHLEFELLHCLLQRHGQTVAPSEILKEVWGYDPDDDIETIRVHIRHLRTKLEPDPRHPRYIKTVYGAGYCLELPAETELHQHADQFPSAS		binds
RpaA, fluorescently labeled probe (natural protein, fluorescently labeled using sortase-mediated ligation) MKPRILVIDDDSAILELVAVNLEMSGYDVRKAEDGIKGQALAVQLVPDLIMLDLMLPRVDGFTVCQRLRRDERTAEIPVLMLTALGQTQDKVEGFNAGADDYLTKPFEVEEMLARVRALLRRTDRIPHAARHSEILSYGPLTLIPERFEAIWFNRTVKLTHLEFELLHCLLQRHGQTVAPSEILKEVWGYDPDDDIETIRVHIRHLRTKLEPDPRHPRYIKTVYGAGYCLELPAETELHQHADQFPSAS		binds
